B1: Hairpin Ribozyme (parent)
chain: GUCCUCUUUCACGUGCGCGUGAAAGAGAGAAGUGAACCAGAGAAACACACGUUGUGGUAUAUUACCUGGUA

Variants of: B1
Assay: self-cleavage, relative activity (ratio to wild type); higher = more cleavage; co-transcriptional

Variant | self-cleavage
U8C U70C | 0.651
U8C U70A | 0.631
U7G U60C | 1.12
U8A A41C | 0.82
U8A A41U | 0.843
U8A U33C | 0.137
U8A G21A | 0.618
U8G G32A | 0.0907
U8A A36U | 0.473
U8A A36G | 0.714
U7C A30G | 0.0858
U8G A49C | 0.108
U7G A61G | 0.0998
U7G U20C | 0.798
U8G G57U | 0.19
U7G C65G | 0.31
U7G C65A | 0.975
U8A G15U | 0.888
U9A A39G | 0.201
U7G U55G | 0.215
U8C G32U | 0.0859
U8C U53A | 0.674
U8C U53G | 0.509
U7G U14G | 0.729

Variant | self-cleavage
U7G U14A | 0.666
U7G U14C | 0.701
U8A A59G | 0.215
U8C U33A | 0.216
U8C U55C | 0.132
U9A A28U | 0.441
U7C G13C | 0.518
U8A A11U | 0.619
U8A A11G | 0.772
U8G G15U | 0.656
U7C A35C | 0.612
U8C A49C | 0.216
U7G G40C | 0.207
U7G G40A | 0.308
U9A A23G | 0.559
U8A A64U | 0.151
U8A A64C | 0.181
U8G A22C | 0.556
U8G A45U | 0.118
U7G A35C | 0.757
U8G C65G | 0.275
U7C A49U | 0.135
U7C G34C | 1.37
U8A G68C | 0.215

Variant | self-cleavage
U8G G25U | 0.2
U8A C50G | 0.21
U8C A39C | 0.343
U8G G13A | 0.618
U8G G13C | 0.519
U7C G68U | 0.171
U7C G68A | 0.339
U7G U33A | 0.131
U7G U33C | 0.113
U7G U70G | 0.917
U7G U70C | 0.838
U8A A23G | 0.808
U8A A23C | 0.712
U7G C66A | 0.205
U7G U53C | 0.84
U7G A71G | 1.06
U7G A71C | 1.35
U8A U55A | 0.184
U8A U55C | 0.322
U8A U55G | 0.268
U8C A24U | 0.369
U8G G56A | 0.11
U8G G56C | 0.0783
U7C G69U | 0.179

Variant | self-cleavage
U8A G40A | 0.235
U8A G17U | 0.79
U8G A30U | 0.186
U8C G34C | 1.16
U8A C12G | 0.552
U9A A61C | 0.144
U7G A41C | 0.863
U7G A41G | 0.946
U7G A41U | 1.12
U7C C37U | 0.494
U7G G21C | 0.332
U7G A45C | 0.0973
U7G A45G | 0.102
U8G A31C | 0.13
U7C G29U | 0.178
U7C G29A | 0.204
U8C U52G | 0.709
U8C U52C | 0.405
U8G A35U | 0.673
U7C U53A | 1.3
U7C U53G | 0.686
U8C C37A | 0.214
U8A A22U | 0.891
U8C C38A | 0.215

Variant | self-cleavage
U8A G27U | 0.208
U8G A71G | 0.993
U8G A71U | 0.588
U7G G51A | 0.891
U8G C10A | 0.725
U8G C10U | 0.654
U7C C16U | 1
U7G G56U | 0.0768
U7G C46A | 0.0994
U8G U33C | 0.117
U8G U33A | 0.136
U7G C16U | 0.932
U7G C16G | 0.689
U8A C66G | 0.101
U8A C66A | 0.128
U8A C66U | 0.238
U9A A64U | 0.131
U8G G51C | 0.665
U7C G19A | 0.559
U7C G19C | 0.683
U8G G40U | 0.132
U7G A64C | 0.24
U7G A64U | 0.143
U8A U63G | 0.117

Variant | self-cleavage
U7G A44G | 0.16
U9A A36U | 0.283
U8G A59C | 0.136
U7C G17C | 0.527
U9A A43U | 0.105
U7C U58C | 0.775
U8A C10U | 0.643
U8A C10G | 0.44
U7G A30U | 0.0317
U7G A28U | 0.498
U7G A39G | 0.377
U7G A39U | 0.421
U8C C10A | 0.363
U7G G57U | 0.175
U7C G21C | 0.962
U8G U67C | 0.189
U8G U67G | 0.242
U8G U67A | 0.145
U7G U52G | 0.779
U8G C37A | 0.218
U7C C65U | 0.254
U8A A61U | 0.191
U8A A31U | 0.135
U8A A31G | 0.448

Variant | self-cleavage
U7G G42C | 0.316
U8A U62G | 0.123
U7G G27U | 0.226
U7G G27C | 0.152
U7G A31G | 0.503
U7G A31U | 0.216
U7G U67A | 0.238
U7G U67C | 0.217
U7G U9A | 0.68
U7G U9G | 0.599
U8A C48G | 0.107
U8A C48A | 0.111
U8A C48U | 0.117
U8G A11C | 0.512
U8G A11U | 0.67
U8A A44G | 0.173
U8A A44C | 0.213
U7C C18A | 0.973
U7C C18U | 1.06
U7C C18G | 0.732
U8G A23U | 0.738
U8A G29A | 0.183
U8A A71C | 1.23
